Source: patent US20230310596A1, “DRUG FOR TREATING TUMOR” (priority 2020, published 2023)
Where two headings read alike, the source gives them in different places.

Tested on: MSI-H or dMMR endometrial cancer
Format: in vivo, human
Procedure: Endometrial cancer subjects meeting inclusion criteria were first tested for MMR/MSI status by immunohistochemical or PCR methods, and then grouped according to the MSI-H/dMMR test results; for non-MSI-H/non-dMMR subjects, an anti-PD-L1 antibody and anlotinib hydrochloride (cohort I) were administered, while for MSI-H or dMMR subjects, an anti-PD-L1 antibody (cohort II) was administered, and for patients with disease under control (CR + PR + SD) and tolerable adverse reactions, the administration could be continued until clinical benefits were lost, until the toxicity was intolerable, until PD/iCPD was given by efficacy evaluation, or until the investigator deemed further medication inappropriate. Efficacy evaluations were performed every 6 weeks (42 days) ± 3 days, starting on day 1 of treatment cycle 1, and the efficacy evaluations were performed once every 12 weeks (84 days) ± 3 days after 54 weeks, until the subjects developed disease progression confirmed by oncologic imaging. 1) Histologically or cytologically confirmed unresectable recurrent or metastatic advanced endometrial cancer (previously received 1-2 lines of systemic standard chemotherapy and failed or was intolerant; preliminary neoadjuvant or adjuvant chemotherapy was allowed). 2) It was confirmed that there was at least one measurable lesion according to the Response Evaluation Criteria in Solid Tumors (RECIST 1.1). 3) Age: ≥18 years; ECOG PS scoring: 0-1; an expected survival time of more than 3 months. Anti-PD-L1 antibody injection hu5G11-hIgG1: 1200 mg of the anti-PD-L1 antibody injection (strength: 600 mg/20 mL) was diluted to 250 mL with normal saline, and the infusion time was 60 ± 10 min (from the beginning of the infusion of the anti-PD-L1 antibody injection until the end of the infusion of the anti-PD-L1 antibody injection and the completion of flushing the tube with normal saline (20 mL recommended)). The anti-PD-L1 antibody injection was administered on the first day, and once every 21 days, that is, 21 days were counted as a treatment cycle (d1/q3w). Safety evaluation criteria: the severity of adverse events was determined using the NCI-CTC AE 5.0 criteria. Effectiveness evaluation criteria: disease status was determined using RECIST 1.1, iRECIST criteria. RECIST 1.1 criteria were used as the primary criteria, and iRECIST criteria were used to confirm efficacy. That is, subjects determined to be disease progression (PD) according to RECIST 1.1 criteria were further confirmed according to iRECIST criteria to determine whether to take further medication observation. Primary endpoint: objective response rate (ORR) for IRC evaluation Secondary endpoint: (1) objective response rate (ORR), disease control rate (DCR), duration of response (DOR), progression-free survival (PFS), overall survival (OS), DOR rate (≥ 6 months), and the like evaluated by investigators; (2) the incidence and severity of adverse events (AEs) and serious adverse events (SAEs), and abnormal laboratory test indicators.

[1] = cohort II, after at least 2 cycles of treatment
[2] = cohort II, after at least 2 cycles of treatment, listed as anti-PD-L1 antibody

B1: Cohort II: anti-PD-L1 humanized monoclonal antibody hu5G11-hIgG1, prepared as described in WO2016022630, given as injection (antibody, V domains shown)
VH: QITLKESGPTLVKPTQTLTLTCTVSGFSLSTYGVHWIRQPPGKALEWLGVIWRGVTTDYNAAFMSRLTITKDNSKNQVVLTMNNMDPVDTATYYCARLGFYAMDYWGQGTLVTVSS
VL: DIQMTQSPSSLSASVGDRVTITCKASQSVSNDVAWYQQKPGKAPKLLIYYAANRYTGVPDRFSGSGYGTDFTFTISSLQPEDIATYFCQQDYTSPYTFGQGTKLEIK
modifications: hIgG1 constant regions; VH of hu5G11-hIgG1 and hu5G11-hIgG4; VL of hu5G11-hIgG1 and hu5G11-hIgG4
Cohort II, MSI-H or dMMR subjects, after at least 2 cycles of treatment, RECIST 1.1/iRECIST, antibody 1200 mg d1/q3w
  best response CR, number of subjects: 0/6
[1]
  DCR, number of subjects: 3/6
  ORR, number of subjects: ⅙
  best response CR, ratio: (0.00%)
  best response PD, ratio: (50.00%)
  best response PR (partial response), number of subjects: ⅙
  best response PR, ratio: (16.67%)
  best response SD (stable disease), number of subjects: 2/6
  best response SD, ratio: (33.33%)
  disease control rate (DCR): (50.00%)
  objective response rate (ORR): (16.67%)
[2]
  disease control rate (DCR): 50.00%
  objective response rate (ORR): 16.67%
human, in vivo
  adverse reaction incidence: 67%
  incidence of adverse reactions above grade 3: 16%
